Patent US9494574B2, “T-cell death-inducing epitopes” (AbGenomics Cooperatief U.A., priority 2004, dated 2016)
“Also recorded” adds a separate entry of the source.

Assays:
[1] = system: in vitro activated human T-cells; test: Induction of death of activated human T-cells by monoclonal antibodies (annexin V staining, FACS, CD3-positive gated); assay type: cell-based; settings: for Percentage of apoptotic T-cells: Day 7, in vitro activated human T-cells, hybridoma culture supernatant, 6 hours, annexin V positive among CD3-positive cells; for percentage of in vitro activated T-cells undergoing apoptosis compared to that of untreated cells: annexin V staining and FACS analysis; for induction of death (apoptosis) of in vitro activated human T-cells: result in words
Protocol: Activated T cells (see above) were resuspended to a final concentration of 5×10^5 cells/ml in RPMI medium containing 5 ng/ml of IL-2, and treated with control Ig, m128-9F9, m152-15A7, or m166-43B6.
(§1) It is well known that T-cell death-inducing antibodies can be used as therapeutic agents to treat T-cell-related diseases such as transplantation rejections, autoimmune diseases, and allergy. Three monoclonal antibodies against human T-cells were generated, and the capabilities of these monoclonal antibodies to induce apoptosis of activated human T-cells were examined. Culture supernatants containing monoclonal antibodies secreted by hybridoma cell line m128-9F9, m152-15A7, or m166-43B6 were incubated with either non-activated human T-cells (Day 0) or in vitro activated human T-cells (Day7) for 6 hours. Cells were stained with annexin V after incubation, and subjected to FACS analysis. CD3-positive cells were gated to ensure counting of either in vitro activated human T-cells or resting human T-cells. The apoptotic cells were annexin V staining-positive. […] This capability of inducing apoptosis of activated T-cells yet sparing the resting T-cells is a unique feature of the apoptotic pathway and is a dominating feature of therapeutic reagents targeting T-cell-mediated diseases.

[2] = system: non-activated human T-cells; test: Apoptosis of non-activated (resting) human T-cells with monoclonal antibodies (annexin V staining, FACS, CD3-positive gated); assay type: cell-based; settings: for Percentage of apoptotic T-cells: Day 0, non-activated human T-cells, hybridoma culture supernatant, 6 hours, annexin V positive among CD3-positive cells; for effect on non-activated human T-cells: result in words
Source text: as §1

Row | Molecule | Percentage of apoptotic T-cells [1] [%] | percentage of in vitro activated T-cells undergoing apoptosis compared to that of untreated cells [1] | induction of death (apoptosis) of in vitro activated human T-cells [1] | Percentage of apoptotic T-cells [2] [%] | effect on non-activated human T-cells [2]
1 | m166-43B6: mouse monoclonal antibody from hybridoma raised against Concanovalin A-activated human T-cells; induces T-cell apoptosis (antibody, V domains shown) VL: ENVLTQSPAIMSASPGEKVTMTCRASSTVNSTYLHWFQQKSGASPKLWIYGSSNLASGVPARFSGSGSGTSYSLTISSVEAEDAATYYCQQYSGYPLTFGAGTTLELK VH: EVQLQQSGPDLVKPGALVKISCKASGYSFTAYYIHWVKQSHGKSLEWIGRVNPNTGGTSYNPKFKGKAILNVDKSSSTAYMELRSLTSEDSAVYYCARSGSPYYRYDDWGQGTTLTVSS | 49.44 | about doubled | able to induce T-cell apoptosis in vitro; also recorded: induced death of in vitro activated human T-cells | 6.57 | did not affect non-activated human T-cells
2 | m152-15A7: mouse monoclonal antibody from hybridoma raised against Concanovalin A-activated human T-cells; induces T-cell apoptosis (antibody, V domains shown) VL: DILMTQTPLSLPVSLGDQASISCRSSQSIVHNDGNTYFEWYLQKPGQSPKLLIYKVSNRFSGVPDRFSGSGSGTHFTLNISRVEAEDLGIYYCFQGSYVPLTFGAGTKLELK VH: DVQLVESGGGLVQPGGSRKLSCAASGFTFSSFGMHWVRQAPEKGLEWVAYINGGSSTIFYANAVKGRFTISRDNPKNTLFLQMTILRSEDTAIYYCGRYASYGGGAMDYWGQGTSVTVSS | 51.66 | about doubled | able to induce T-cell apoptosis in vitro; also recorded: induced death of in vitro activated human T-cells | 5.23 | did not affect non-activated human T-cells
3 | m128-9F9: mouse monoclonal antibody from hybridoma raised against Concanovalin A-activated human T-cells; induces T-cell apoptosis (antibody, V domains shown) VL: DVLMTQTPLSLPVSLGDQASISCRSSQSIVNSNGNTYLEWYLQKPGQSPKLLIYKVSNRFSGVPDRFSGSGSGTDFTLKISRVEAEDLGVYYCFQGSHVPWTFGGGTKLEIK VH: EVQLVETGGGLVQPKGSLKLSCAASGFTFNTNAMNWVRQAPGKGLEWVARIRSKSNNYATYYADSVKDRFTISRDDTQSMIYLQMNNLKTEDTGMYYCVRGGSYWYFDVWGAGTTVTVSS | 28.71 | about doubled | able to induce T-cell apoptosis in vitro; also recorded: induced death of in vitro activated human T-cells | 5.82 | did not affect non-activated human T-cells
